This is an account of results in US8691225B2, “Antibodies against the ectodomain of ErbB3 and uses thereof” (Merrimack Pharmaceuticals, Inc., priority 2007, dated 2014).

One test concerns the target TGF-α (Homo sapiens, UniProt P01135). Kind of test: binding specificity ELISA. Particulars: IgG2 isotype of Ab #6. As to the method:
(§1) 96-well NUNC MAXISORB plates are coated by overnight incubation at room temperature with 50 μl/well of 5 μg/ml of individual proteins. The proteins are recombinant human EGFR ectodomain, BSA, recombinant human ErbB3 ectodomain and TGF-α. The next morning, plates are washed 3 times with […] of PBST (0.05% Tween-20) in the BIOTEK plate washer. The wells are blocked for 1 hr at room temperature with 2% BSA in PBS and washed again as before. […] All samples are run in duplicate and incubated for 2 hrs at 4° C. on a plate shaker. The plates are washed again as before. 50 μl of human IgG-Fc detection antibody (HRP conjugated, Bethyl Laboratories, Inc; 1:75000 dilution in 2% BSA, PBST) is added and the plates are incubated for 1 hr at room temperature. The plates are washed again as before. 50 μL of SUPERSIGNAL ELISA Pico substrate is added and the plate is read on the FUSION plate reader (Packard/Perkin Elmer). The data is analyzed using the EXCEL program. Duplicate samples are averaged and the error bars represent the standard deviation between the two replicates.

Test [1] deals with T1, recombinant human EGFR ectodomain (Homo sapiens, UniProt P00533).
T1 construct: recombinant human EGFR ectodomain
Description: binding specificity ELISA. The note with it: IgG2 isotype of Ab #6. As to the method: as §1

Test [2] concerns the target T2, recombinant human ErbB3 ectodomain (Homo sapiens, UniProt P21860).
T2 construct: recombinant human ErbB3 ectodomain
Description: binding specificity ELISA. Particulars: IgG2 isotype of Ab #6. As to the method: as §1

The target in test [3] is T3, heregulin binding to ErbB3 on MALME-3M cells (Homo sapiens, UniProt P21860).
T3 construct: ErbB3 expressed on MALME-3M melanoma cells; host or cells: MALME-3M melanoma cells
Kind of test: biotinylated heregulin binding to MALME3M cells by FACS. The class given is cell-based. Particulars: 5 μM antibody, 20 nM heregulin EGF. The procedure:
After 30 minutes, 50 μl of 40 nM biotinylated heregulin EGF is added to the cells and incubated for another 10 minutes on ice. This yields a final concentration of 5 μM antibody and 20 nM heregulin EGF. Cells are then washed twice with 500 μl BD stain buffer and incubated with 100 μl of a 1:200 dilution of streptavidin-PE (PE=phycoerythrin) (Invitrogen) in BD stain buffer for 45 minutes. Finally, cells are washed twice, resuspended in 300 μl of BD stain buffer and analyzed in a FACSCALIBUR flow cytometer. As a positive control, 1×10^5 MALME3M cells are incubated with 20 nM heregulin EGF for 10 minutes on ice, washed twice and incubated with a 1:200 dilution of streptavidin-PE for 45 minutes. In order to assess background staining from the streptavidin-PE conjugate, 1×10^5 MALME3M cells are incubated with 100 μl of a 1:200 dilution of streptavidin-PE only for 45 minutes.
(In general: A flow cytometer gives signals particle by particle.)

The target in test [4] is T4, ErbB3 in MALME-3M xenografts (Homo sapiens, UniProt P21860).
T4 construct: ErbB3 expressed on MALME-3M melanoma cells; host or cells: MALME-3M melanoma cells
Description: total ErbB3 in MALME-3M xenografts in vivo. Also noted: species or system mouse. Particulars: MALME-3M xenograft, 24 hours post-injection, IgG1 or IgG2 isotype. As to the method:
T-cell deficient nu/nu mice (3-4 week old female mice originated at NIH; outbred; albino background) were purchased from Charles River Labs (Wilmington, Mass.). MALME-3M cells for implantation were grown in culture (RPMI media, 10% FBS, L-glutamine and antibiotics, 37° C., 5% CO2) to about 80% confluency before harvesting. Cells were kept on ice until implantation.
The tumors were measured (length by width) by digital caliper and the mice were pretreated with murine IgG2a (Sigma, M7769—5 mg) by intravenous injection to block in vivo depletion of tested antibodies by murine Fc receptors.
Final tumor measurements (L×W) were taken, the mice were euthanized by CO2 asphyxiation and tumors were excised, snap frozen in liquid nitrogen, and were stored at −80° C. (for biochemical analysis). Final tumor measurements were analyzed and graphed by tumor area and tumor volume as described, for example, in Burtrum et al., (2003) Cancer Res., 63:8912-8921. The data was also analyzed by “normalized” and “non-normalized” means for both tumor volume and tumor area. For the “normalization” of the data, at each time point of measurement, each tumor in each group was divided by the initial tumor size determined by caliper measurement.

For the next test, the system named is OVCAR8 spheroids. Description: spheroid growth assay. Particulars: OVCAR8, 25 μg/ml on days 1 and 4. The class given is cell-based, human. As to the method: (§2) Subconfluent cells are trypsinized, counted, and resuspended in filtered medium. The cell concentration is adjusted to 100,000 cells/ml, and one 20 ul drop (containing 2000 cells) is added to each ring on the underside of the lid of a 96-well plate. The lids with these hanging droplets are then placed back on the original 96-well plate, which contained 100 ul of PBS in each well to maintain moisture. Four days after initial plating, the hanging droplets containing the spheroids are replated into new 96-well plates. This replating involves transferring the lid containing the hanging droplets to a fresh 1% agarose/RPMI-coated 96-well plate that contains 150 ul of medium per well. The plate and lid are then centrifuged together at 500 rpm for 1 minute to transfer the spheroid-containing drops from the lids to the wells. Plates are then further incubated at 37° C. in a humidified CO2 incubator. Spheroids are photographed in an inverted phase contrast microscope. A micrometer scale is also photographed at the same magnification to determine spheroid size. The diameter of the spheroids is determined using METAMORPH image analysis software (MDS Analytical Technologies).
Multicellular tumor spheroids are generated as before.

The next test has as its target BSA (Bos taurus, UniProt P02769). Kind of test: binding specificity ELISA. Also noted: species or system bovine. Particulars: IgG2 isotype of Ab #6. The procedure: as §1
Test [5] concerns phosphorylated ErbB3 (pErbB3) in AdrR ovarian xenografts. Description: ErbB3 phosphorylation in AdrR ovarian xenografts in vivo. Also noted: species or system mouse. The note with it: pErbB3 in ng/mg of total protein. As to the method: The samples are pulverized substantially as described in Example 5 supra, with respect to FIG. 8. The BCA assay is performed substantially as set forth in the Materials and Methods section supra, and the ELISA assay is performed substantially as described in Example 5 supra with respect to FIG. 8.

For another test, the system named is AdrR spheroids. Description: spheroid growth assay. It counts as cell-based, human. The note with it: 8 uM. As to the method: as §2
(§3) The diameters of the spheroids are measured using light microscopy (10× objective) at day 1 and day 13.

A further test has as its system DU145 spheroids. Description: spheroid growth assay. It counts as cell-based, human. Particulars: DU145, 8 uM, 3.4 nM HRG. As to the method:
as §2, §3

Chain of BSA (P02769 25-607): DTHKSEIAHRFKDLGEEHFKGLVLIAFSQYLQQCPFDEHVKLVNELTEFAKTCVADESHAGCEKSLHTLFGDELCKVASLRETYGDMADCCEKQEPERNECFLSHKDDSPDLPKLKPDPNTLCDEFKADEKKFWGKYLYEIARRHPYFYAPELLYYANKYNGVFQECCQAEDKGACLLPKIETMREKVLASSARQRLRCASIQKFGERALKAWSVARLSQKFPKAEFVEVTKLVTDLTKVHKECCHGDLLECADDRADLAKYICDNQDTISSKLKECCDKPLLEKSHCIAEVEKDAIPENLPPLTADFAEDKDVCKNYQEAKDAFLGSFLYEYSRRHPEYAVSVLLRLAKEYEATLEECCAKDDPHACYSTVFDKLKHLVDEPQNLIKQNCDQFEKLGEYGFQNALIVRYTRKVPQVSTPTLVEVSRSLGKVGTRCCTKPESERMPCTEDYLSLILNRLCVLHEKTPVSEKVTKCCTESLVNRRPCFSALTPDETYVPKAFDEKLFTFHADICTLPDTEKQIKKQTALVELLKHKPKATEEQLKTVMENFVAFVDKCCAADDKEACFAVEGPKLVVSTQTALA

B1: Ab #6: human anti-ErbB3 antibody from Fab-phage library, CDRs SEQ ID NOs:7-12; used as IgG1 and IgG2 isotypes; in phase I trials as MM-121 (antibody, V domains shown)
VH: EVQLLESGGGLVQPGGSLRLSCAASGFTFSHYVMAWVRQAPGKGLEWVSSISSSGGWTLYADSVKGRFTISRDNSKNTLYLQMNSLRAEDTAVYYCTRGLKMATIFDYWGQGTLVTVSS
VL: QSALTQPASVSGSPGQSITISCTGTSSDVGSYNVVSWYQQHPGKAPKLIIYEVSQRPSGVSNRFSGSKSGNTASLTISGLQTEDEADYYCCSYAGSSIFVIFGGGTKVTVL
On to B1, for which the “binding in ELISA” value was “did not show any appreciable binding” with TGF-α, “did not show any appreciable binding” in test [1], “bound recombinant ErbB3” in [2] and “did not show any appreciable binding” with BSA. Moreover, the “inhibition of heregulin binding to ErbB3” value in [3] was “able to inhibit heregulin binding to ErbB3”. The “downregulation of total ErbB3 in xenograft tumors” value in [4] is reported as “significant downregulation of total ErbB3”. In addition, the “decrease in spheroid area” value in the test with OVCAR8 spheroids is given as 30-40%. Moreover, the “inhibition of ErbB3 phosphorylation in vivo” value in test [5] is “significantly inhibited ErbB3 phosphorylation”. In addition, the “inhibition of HRG-induced spheroid growth” value is reported as “inhibits the HRG effect” with AdrR spheroids (3.4 nM HRG) and “inhibits HRG induced spheroid growth” in the test on DU145 spheroids. Also, the “inhibition of spheroid growth” value in the test on AdrR spheroids (day 1 to day 13) is listed as “inhibits spheroid growth in AdrR cells”.
